Data: publication doi:10.1101/2025.09.11.675134, “Biodistribution-Driven Discovery Identifies a Glycosidase-Cleavable Linker to Reprogram Radiotheranostics” (bioRxiv, 2025)
Like-named read-outs stand apart in the source and are kept apart here. Positions of bridges follow the written chain, without caps; N, C: chain ends. Non-standard residues stand in square brackets, D forms with d. Residues, ends and D or L forms follow the SMILES beside them. *: point of attachment. X1 = C[C@H](CCC(=O)*)[C@H]1CC[C@H]2[C@@H]3[C@H](O)C[C@@H]4C[C@@H](NC(=O)CNC(=O)CN5CCN(CC(=O)O)CCN(CC(=O)O)CCN(CC(=O)O)CC5)CC[C@]4(C)[C@H]3C[C@H](O)[C@]12C; DOTA = O=C(O)CN1CCN(CC(=O)O)CCN(CC(=O)*)CCN(CC(=O)O)CC1

Assay: Ex vivo biodistribution screen of 111In-labeled DOTA-TATE derivatives in normal mice
Design: species or system athymic nude mice
Conditions: 2 h post-injection; for tissue uptake at 2 h: athymic nude, mouse, iv, 1 ug per mouse, total radioactivity, normal athymic nude mice; for Relative kidney retention, % rel. to DOTA-TATE: normal mice, 111In-DOTA-TATE set as 100%
Procedure: The panel of 10 compounds were then tested in an initial biodistribution screen of 9 organs assessed in non-tumor-bearing mice at specific timepoints following administration of the radioconjugates. Each agent was initially labeled with ^111In, a long-lived gamma-emitting radioisotope suitable for biodistribution studies, with high radiochemical yields and purity (Fig. S12). The compounds were then dosed (1.55 ± 0.12 MBq; 1 μg per mouse) in healthy athymic nude mice via intravenous (i.v.) injection in phosphate-buffered saline (PBS; vehicle). After 2 hours, the mice were sacrificed and ex vivo biodistribution analysis was performed (Fig. 2). […] This was an expected finding because this variant was designed to bind serum albumin.
Radiolabeling and In Vivo Evaluation of DOTA-TATE Variants:
Biodistribution, PET Quantification, and Dosimetry
Radiolabeling: To perform the initial biodistribution screen, radiolabeling of 10 compounds, including DOTA-TATE, was carried out using 111In (Cardinal Health, Arbutus, MD, USA), an affordable and readily available gamma -emitting radioisotope with a moderate half -life (2.83 days), which affords efficient DOTA radiolabeling and facilitates handling. 111InCl3 (28 – 36 MBq) was diluted with 0.4 M NH 4OAc buffer (pH 5.2) and combined with DOTA -TATE variants (20 μg). The solution was mixed well and then incubated at 90 °C for 30 min.
Radiolabeling efficiency and radiochemical purity were determined by radio -TLC and radio - HPLC. Radiochemical yield was >95% and the material was used without further purification.
The specific activity was 1.55 ± 0.12 TBq/g (41.9 ± 3.2 Ci/g). […]
Radio-instant thin-layer chromatography (radio-iTLC) was performed using silicic acid-impregnated glass microfiber paper strips (iTLC-SA, Varian, Lake Forest, CA, USA) as the stationary phase, and 50 mM EDTA in 100 mM NH4OAc (pH 5.5) as the mobile phase, analyzed with a radio-TLC scanner (AR-2000, Eckert-Ziegler, Wilmington, MA, USA). For Ac-225, equilibration was allowed for at least 12 hours before scanning the TLC strips to confirm initial scans. Radio-HPLC analysis (Agilent 1260 Infinity II, Agilent Technologies Inc., Santa Clara, CA, USA) was conducted on a TSK- Octadecyl-4PW column (5 µm, 4.6 mm ID × 15 cm, Tosoh
Co. Tokyo, Japan) with gradient elution using 0.1% trifluoroacetic acid in water as mobile phase A and 0.1% trifluoroacetic acid in acetonitrile as Mobile phase B. The elution sequence was 0-5 […]
PET imaging and biodistribution: For initial biodistribution screen studies, normal mice were administered 1.4 – 1.8 MBq (1 μg) of 111In-DOTA-TATE variants via tail vein injection and biodistribution studies were conducted at 2 hours post -injection (n = 2 – 4 per cohort).
For studies involving three variants (DOTA -TATE, DOTA-MVK(ε)-TATE, and DOTA-β-Gal-TATE), AR42J cells (5 × 10^6 cells per mouse) were subcutaneously inoculated into the right shoulder of the mice. Tumors were allowed to grow for 3 weeks, reaching a volume of 100 –200 mm³ before being used in subsequent experiments. For biodistribution or PET imaging studies, mice bearing subcutaneous AR42J tumors were administered 1.4 – 1.8 MBq (1 μg) of 111In-labeled DOTA-TATE variants or 2.7 – 4.9 MBq (1 μg) of 86Y-labeled DOTA-TATE variants via tail vein injection. Biodistribution studies with 111In-labeled DOTA -TATE variants were performed 1 hour post -injection (n = 3 per cohort), while studies with 86Y-labeled DOTA-TATE variants were conducted at 1, 4, and 24 hours post -injection (n = 3 per cohort). Mice were euthanized by CO2 asphyxiation, and 10 tissues, including tumors, were collected. All samples were weighed and counted on a gamma counter (2480 Wizard 3, Perkin Elmer Inc., Waltham, MA, USA). Results are presented as percentage of injected activity per gram (%IA/g) and mean values ± standard deviations.
PET imaging to assess the uptake of three 86Y-labeled DOTA-TATE variants (2.7 – 4.9 MBq, 1 […]

[1] = blood, i.v. 1 μg (1.4–1.8 MBq), ex vivo gamma counting, mean, n = 2–4, read-out: Blood uptake
[2] = femur, i.v. 1 μg, ex vivo, mean, n = 2–4, read-out: Femur uptake
[3] = heart, i.v. 1 μg, ex vivo, mean, n = 2–4, read-out: Heart uptake
[4] = intestine, i.v. 1 μg, ex vivo, mean, n = 2–4, read-out: Intestine uptake
[5] = liver, i.v. 1 μg, ex vivo, mean, n = 2–4, read-out: Liver uptake
[6] = lung, i.v. 1 μg, ex vivo, mean, n = 2–4, read-out: Lung uptake
[7] = muscle, i.v. 1 μg, ex vivo, mean, n = 2–4, read-out: Muscle uptake
[8] = spleen, i.v. 1 μg, ex vivo, mean, n = 2–4, read-out: Spleen uptake
[9] = kidney, i.v. 1 μg, ex vivo, mean (± SD), n = 2–4, read-out: Kidney uptake

`C[C@@H](O)[C@H](NC(=O)[C@@H]1CSSC[C@H](NC(=O)[C@@H](Cc2ccccc2)NC(=O)[C@@H](Cc2ccc(O)cc2)NC(=O)CNC(=O)CN2CCN(CC(=O)O)CCN(CC(=O)O)CCN(CC(=O)O)CC2)C(=O)N[C@@H](Cc2ccc(O)cc2)C(=O)N[C@H](Cc2c[nH]c3ccccc23)C(=O)N[C@@H](CCCCN)C(=O)N[C@@H]([C@@H](C)O)C(=O)N1)C(=O)O` [^111In-DOTA-GY*-TATE, metal not drawn] ({DOTA}-G[dY][dF]CY[dW]KTCT-OH; disulfide 4-9) gave a tissue uptake at 2 h [1] of 0.06 %ID/g, a tissue uptake at 2 h [2] of 0.1 %ID/g and a tissue uptake at 2 h [3] of 0.06 %ID/g. For the same compound, the tissue uptake at 2 h [4] was 0.63 %ID/g, the tissue uptake at 2 h [5] was 0.17 %ID/g and the tissue uptake at 2 h [6] was 1.17 %ID/g. For the same compound, the tissue uptake at 2 h [7] was 0.02 %ID/g, the tissue uptake at 2 h [8] was 0.16 %ID/g and the “Relative kidney retention, % rel. to DOTA-TATE” value was 865%.

Work on `C[C@H](CCC(=O)NCC(=O)N[C@H](Cc1ccccc1)C(=O)N[C@H]1CSSC[C@@H](C(=O)N[C@H](C(=O)O)[C@@H](C)O)NC(=O)[C@H]([C@@H](C)O)NC(=O)[C@H](CCCCN)NC(=O)[C@@H](Cc2c[nH]c3ccccc23)NC(=O)[C@H](Cc2ccc(O)cc2)NC1=O)[C@H]1CC[C@H]2[C@@H]3[C@H](O)C[C@@H]4C[C@@H](NC(=O)CNC(=O)CN5CCN(CC(=O)O)CCN(CC(=O)O)CCN(CC(=O)O)CC5)CC[C@]4(C)[C@H]3C[C@H](O)[C@]12C` [^111In-DOTA-Chol-TATE, metal not drawn] (X1-G[dF]CY[dW]KTCT-OH; disulfide 3-8) yielded a tissue uptake at 2 h [2] of 0.36 %ID/g, a tissue uptake at 2 h [3] of 0.55 %ID/g and a tissue uptake at 2 h [4] of 0.83 %ID/g. It also gave a tissue uptake at 2 h [5] of 1.32 %ID/g, a tissue uptake at 2 h [6] of 1.86 %ID/g and a tissue uptake at 2 h [7] of 0.15 %ID/g. For the same compound, the tissue uptake at 2 h [8] was 0.48 %ID/g and the “Relative kidney retention, % rel. to DOTA-TATE” value was 159%.

With `C[C@H](CCC(=O)NCC(=O)N[C@H](Cc1ccccc1)C(=O)N[C@H]1CSSC[C@@H](C(=O)N[C@H](C(=O)O)[C@@H](C)O)NC(=O)[C@H]([C@@H](C)O)NC(=O)[C@H](CCCCN)NC(=O)[C@@H](Cc2c[nH]c3ccccc23)NC(=O)[C@H](Cc2ccc(O)cc2)NC1=O)[C@H]1CC[C@H]2[C@@H]3[C@H](O)C[C@@H]4C[C@@H](NC(=O)CNC(=O)CN5CCN(CC(=O)O)CCN(CC(=O)O)CCN(CC(=O)O)CC5)CC[C@]4(C)[C@H]3C[C@H](O)[C@]12C` [DOTA-G-Chol-G-TATE] (X1-G[dF]CY[dW]KTCT-OH; disulfide 3-8) the tissue uptake at 2 h [1] was 1.7 %ID/g and the tissue uptake at 2 h [9] was 9.6 %ID/g.

`C[C@@H](O)[C@H](NC(=O)[C@@H]1CSSC[C@H](NC(=O)[C@@H](Cc2ccccc2)NC(=O)CCCC(=O)Nc2cc(COC(=O)N(C)CCNC(=O)CN3CCN(CC(=O)O)CCN(CC(=O)O)CCN(CC(=O)O)CC3)ccc2O[C@@H]2O[C@H](C(=O)O)[C@@H](O)[C@H](O)[C@H]2O)C(=O)N[C@@H](Cc2ccc(O)cc2)C(=O)N[C@H](Cc2c[nH]c3ccccc23)C(=O)N[C@@H](CCCCN)C(=O)N[C@@H]([C@@H](C)O)C(=O)N1)C(=O)O` [^111In-DOTA-GlcA-TATE, metal not drawn] gave a tissue uptake at 2 h [1] of 0.08 %ID/g, a tissue uptake at 2 h [2] of 0.1 %ID/g and a tissue uptake at 2 h [3] of 0.08 %ID/g. It also gave a tissue uptake at 2 h [4] of 0.44 %ID/g, a tissue uptake at 2 h [9] of 8.88 %ID/g and a tissue uptake at 2 h [5] of 0.13 %ID/g. The tissue uptake at 2 h [6] was 0.19 %ID/g, the tissue uptake at 2 h [7] was 0.03 %ID/g and the tissue uptake at 2 h [8] was 0.08 %ID/g. For the same compound, the “Relative kidney retention, % rel. to DOTA-TATE” value was 147%.

`C[C@@H](O)[C@H](NC(=O)[C@@H]1CSSC[C@H](NC(=O)[C@@H](Cc2ccccc2)NC(=O)CN2CCN(CC(=O)O)CCN(CC(=O)O)CCN(CC(=O)O)CC2)C(=O)N[C@@H](Cc2ccc(O)cc2)C(=O)N[C@H](Cc2c[nH]c3ccccc23)C(=O)N[C@@H](CCCCN)C(=O)N[C@@H]([C@@H](C)O)C(=O)N1)C(=O)O` [DOTA-TATE, reference compound] gave a tissue uptake at 2 h [9] of 6.1 %ID/g.

With `CSCC[C@H](NC(=O)CN1CCN(CC(=O)O)CCN(CC(=O)O)CCN(CC(=O)O)CC1)C(=O)N[C@H](C(=O)N[C@@H](CCCCN)C(=O)N[C@H](Cc1ccccc1)C(=O)N[C@H]1CSSC[C@@H](C(=O)N[C@H](C(=O)O)[C@@H](C)O)NC(=O)[C@H]([C@@H](C)O)NC(=O)[C@H](CCCCN)NC(=O)[C@@H](Cc2c[nH]c3ccccc23)NC(=O)[C@H](Cc2ccc(O)cc2)NC1=O)C(C)C` [DOTA-MVK-TATE] ({DOTA}-MVK[dF]CY[dW]KTCT-OH; disulfide 5-10) the tissue uptake at 2 h [9] was 76 %ID/g.

`CSCC[C@H](NC(=O)CN1CCN(CC(=O)O)CCN(CC(=O)O)CCN(CC(=O)O)CC1)C(=O)N[C@H](C(=O)N[C@@H](CCCCNC(=O)CCCC(=O)N[C@H](Cc1ccccc1)C(=O)N[C@H]1CSSC[C@@H](C(=O)N[C@H](C(=O)O)[C@@H](C)O)NC(=O)[C@H]([C@@H](C)O)NC(=O)[C@H](CCCCN)NC(=O)[C@@H](Cc2c[nH]c3ccccc23)NC(=O)[C@H](Cc2ccc(O)cc2)NC1=O)C(=O)O)C(C)C` [DOTA-MVK(ε)-TATE] showed a tissue uptake at 2 h [9] of 4 %ID/g.
